Holding throughout (type): biochemical
Series [1] can be described thus: First activity assay of purified 7β-HSDH G39D with NADPH or NADH. Here is the method: Enzyme activity determinations were performed at 30° C. in the microtiter plate photometer with a sample volume of 250 μL, in which the change in the NAD(P)H concentration (ε 340=6.22 mL μmol^−1 cm^−1) was monitored at a wavelength of λ=340 nm. Here, the activities were determined by linear regression in the part of the reaction proceeding linearly. For this, the sample to be tested was appropriately diluted with potassium phosphate buffer (50 mM, pH 8.0) and treated with substrate and cofactor. […]
The G39D mutant of the 7β-HSDH was produced as described in WO 2012/080504. The protein was expressed with an N-terminal His tag and purified by IMAC.

The nature of series [2]: Enzyme kinetic study of 7β-HSDH mutants, DHCA kinetics with NADH as cofactor. The settings on record: 0.5 mM NADH; for vmax (maximal specific enzyme activity): substrate DHCA. Here is the method: Enzyme activity determinations were performed at 30° C. in the microtiter plate photometer with a sample volume of 250 μL, in which the change in the NAD(P)H concentration (ε 340=6.22 mL μmol^−1 cm^−1) was monitored at a wavelength of λ=340 nm. Here, the activities were determined by linear regression in the part of the reaction proceeding linearly. For this, the sample to be tested was appropriately diluted with potassium phosphate buffer (50 mM, pH 8.0) and treated with substrate and cofactor. The final concentrations of substrate and cofactor were 10 mM DHCA and 100 μM NADPH for 7β-HSDH, 10 mM DHCA and 100 μM NADH for 3α-HSDH, and 200 mM glucose and 1000 μM NAD(P) for GDH.
The mutants created were assessed by means of enzyme kinetic studies. For the study of the DHCA kinetics, 0.5 mM NADH was used as the cofactor (FIG. 9), while for the study of the NADH kinetics, 10 mM DHCA was used as the substrate (FIG. 10). From the plots of the DHCA kinetics, the characteristic curve shapes of the Michaelis-Menten kinetics can be discerned for the 7β-HSDH mutants, and no substrate inhibition was observed. Accordingly, the classical Michaelis-Menten model (equation 1) was used for the evaluation of the kinetic parameters.
[formula] EAX: specific enzyme activity, U mg^−1=μmol min^−1 mg^−1 vmax: maximal specific enzyme activity, U mg^−1=μmol min^−1 mg^−1 cs: substrate or cofactor concentration, mol L^−1 Km: half-saturation concentration, mol L^−1

Series [3] can be described thus: Single-stage biotransformation of DHCA to 3,12-diketo-UDCA with purified NADH-dependent 7β-HSDH mutants. As to conditions: after 16 hrs; 0.2 mg mL^−1 7β-HSDH, 10 U mL^−1 GDH, 0.5 mM NAD, 50 mM DHCA, pH 8.0, 30° C.

Residue numbers refer to the chain shown, from its start. Numbers in names are those of the source.

B1: G39D: 7β-HSDH from Collinsella aerofaciens with substitution G39D, produced as described in WO 2012/080504 (protein)
chain: MNLREKYGEWGLILGATEGVGKAFCEKIAAGGMNVVMVDRREEKLNVLAGEIRETYGVETKVVRADFSQPGAAETVFAATEGLDMGFMSYVACLHSFGKIQDTPWEKHEAMINVNVVTFLKCFHHYMRIFAAQDRGAVINVSSMTGISSSPWNGQYGAGKAFILKMTEAVACECEGTGVDVEVITLGTTLTPSLLSNLPGGPQGEAVMKIALTPEECVDEAFEKLGKELSVIAGQRNKDSVHDWKANHTEDEYIRYMGSFYRD
For orientation: Km means the concentration of substrate that gives half-maximal velocity. For B1, in series [1], the NADH activity result is recorded as “marked NADH activity”. In series [1] (10 mM DHCA, 0.5 mM NADPH and pH 8.0), this molecule had an NADPH activity of 0.040±0.005 U mg^−1. Also, in series [2], the Km was determined as 660 ± 120 µM and the “vmax (maximal specific enzyme activity)” value is on record as 2.90 ± 0.16 U mg^−1.

B2: DF: 7β-HSDH mutant with amino acid substitutions G39D R40F compared to the wild type sequence (protein)
chain: B1 chain with R40F
With B2, in series [2], the Km was 420 ± 60 µM and the “vmax (maximal specific enzyme activity)” value stood at 3.70 ± 0.13 U mg^−1.

B3: DFKG: 7β-HSDH mutant with amino acid substitutions G39D R40F R41K K44G compared to the wild type sequence (protein)
chain: B1 chain with R40F, R41K, K44G
Turning to B3, in series [3], the “conversion of DHCA to 3,12-diketo-UDCA” value is “complete conversion”. In addition, in series [2], the Km amounted to 380 ± 50 µM and the “vmax (maximal specific enzyme activity)” value is 5.72 ± 0.19 U mg^−1. Also, the “vmax (maximal specific enzyme activity)” value in series [2] (listed as 7β-HSDH DFKG) is given as 5.72±0.19 U mg^−1.

B4: G39D R40I: previously reported 7β-HSDH double mutant G39D R40I, reference, previously most active mutant (protein)
chain: B1 chain with R40I
Take B4: in series [2], the Km turned out to be 920 ± 170 µM and the “vmax (maximal specific enzyme activity)” value amounted to 4.64 ± 0.27 U mg^−1.

B5: DFK: 7β-HSDH mutant with amino acid substitutions G39D R40F R41K compared to the wild type sequence (protein)
chain: B1 chain with R40F, R41K
On to B5, for which, in series [2], the Michaelis constant (Km) is 290 ± 50 µM and the “vmax (maximal specific enzyme activity)” value came to 5.91 ± 0.23 U mg^−1. In addition, the “vmax (maximal specific enzyme activity)” value in series [2] (listed as 7β-HSDH DFK) is given as 5.91±0.23 U mg^−1.
